Results reported in patent publication US20200048358A1 (ALLIGATOR BIOSCIENCE, published 2020).

Experiments:
CTLA-4 (BMS, Orencia) = CTLA-4 (BMS, Orencia) (human, UniProt P16410 38-152); experiment: cell-based or functional assay
[1] = target: T1, construct 84: Construct containing the full length OX40 sequence (human, UniProt P43489 29-277); experiment: flow cytometry on human/mouse OX40 chimeras
T1 construct: On transiently transfected FreeStyle 293-F cells; also called human OX40 (full length, on 293-F cells)
T1 sequence: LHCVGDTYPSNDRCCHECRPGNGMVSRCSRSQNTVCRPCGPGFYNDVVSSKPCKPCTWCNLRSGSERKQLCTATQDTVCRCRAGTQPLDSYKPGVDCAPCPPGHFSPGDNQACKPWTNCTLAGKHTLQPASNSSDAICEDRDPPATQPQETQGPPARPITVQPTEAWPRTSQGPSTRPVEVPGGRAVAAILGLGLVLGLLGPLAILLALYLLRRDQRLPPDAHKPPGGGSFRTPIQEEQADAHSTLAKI
Protocol: (§1) The mouse/human chimeras were transiently transfected into FreeStyle 293-F cells (Invitrogen), incubated 48 hours in FreeStyle 293 expression medium (Invitrogen) 37 C, 8% CO₂, 135 rpm. The transfected cells were incubated with human OX40 antibodies, human OX40L (hOX40L, RnD Systems), mouse OX40L (mOX40L, RnD Systems) and controls for 30 min 4° C. and then detected with a-huIgG-PE (Jackson lmmunoresearch) 30 min 4° C. Cells were analyzed with FACS Verse (BD Biosciences). Binding to the different chimeric constructs were calculated as relative (mean fluorescence intensity) MFI compared to the binding of the isotype control.

[2] = target: T2, chimeric OX40 construct 1547: Human OX40 with mouse domain 2B, module 3 and domain 4A (aa 83-141) (human; mouse, UniProt P47741 79-139); experiment: flow cytometry, transfected 293-F cells
T2 construct: domain: 2B, module 3 and domain 4A; On 293-F cells; limits derived as for 1544
T2 sequence: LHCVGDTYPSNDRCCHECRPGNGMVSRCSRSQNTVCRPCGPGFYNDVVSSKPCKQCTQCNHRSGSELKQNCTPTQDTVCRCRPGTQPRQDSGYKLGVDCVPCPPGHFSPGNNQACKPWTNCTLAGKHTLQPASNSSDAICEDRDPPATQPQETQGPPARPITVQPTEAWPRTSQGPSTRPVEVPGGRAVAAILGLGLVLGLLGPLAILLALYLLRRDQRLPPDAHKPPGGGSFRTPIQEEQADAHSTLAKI
Protocol: as §1

[3] = target: T3, chimeric OX40 construct 1545: Human OX40 with mouse domains 1B, 2A and 2B (aa 43-107) (human; mouse, UniProt P47741 39-103); experiment: flow cytometry, transfected 293-F cells
T3 construct: domain: 1B, 2A and 2B; On 293-F cells; limits derived as for 1544
T3 sequence: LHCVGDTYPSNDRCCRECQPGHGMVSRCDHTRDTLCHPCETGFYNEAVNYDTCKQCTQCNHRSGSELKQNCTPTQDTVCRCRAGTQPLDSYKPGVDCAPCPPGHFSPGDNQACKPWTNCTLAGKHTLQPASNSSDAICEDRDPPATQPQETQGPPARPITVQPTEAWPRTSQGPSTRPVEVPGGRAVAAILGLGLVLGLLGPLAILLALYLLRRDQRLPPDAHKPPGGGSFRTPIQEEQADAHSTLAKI
Protocol: as §1

[4] = target: T4, chimeric OX40 construct 1548: Human OX40 with mouse module 3 and domains 4A and 4B (aa 108-167) (human; mouse, UniProt P47741 104-165); experiment: flow cytometry, transfected 293-F cells
T4 construct: domain: module 3 and domains 4A and 4B; On 293-F cells; limits derived as for 1544
T4 sequence: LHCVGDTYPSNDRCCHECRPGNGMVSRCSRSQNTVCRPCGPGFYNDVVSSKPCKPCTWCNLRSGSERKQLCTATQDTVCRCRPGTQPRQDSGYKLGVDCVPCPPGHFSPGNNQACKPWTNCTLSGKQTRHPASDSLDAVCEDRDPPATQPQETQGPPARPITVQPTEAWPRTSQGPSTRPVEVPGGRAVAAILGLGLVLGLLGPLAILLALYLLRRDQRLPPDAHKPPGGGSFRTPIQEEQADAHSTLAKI
Protocol: as §1

[5] = target: T5, chimeric OX40 construct 1544: Human OX40 with mouse domains 1A, 1B and 2A (aa 30-81) (human; mouse, UniProt P47741 26-77); experiment: flow cytometry, transfected 293-F cells
T5 construct: domain: 1A, 1B and 2A; On transiently transfected FreeStyle 293-F cells
T5 sequence: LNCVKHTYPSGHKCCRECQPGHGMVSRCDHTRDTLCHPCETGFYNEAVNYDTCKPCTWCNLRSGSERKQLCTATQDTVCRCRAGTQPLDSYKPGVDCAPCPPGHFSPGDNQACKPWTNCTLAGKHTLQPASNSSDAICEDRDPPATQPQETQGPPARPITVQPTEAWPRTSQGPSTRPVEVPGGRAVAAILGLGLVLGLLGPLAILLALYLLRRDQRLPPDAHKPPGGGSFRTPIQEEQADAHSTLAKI
Protocol: as §1

[6] = target: T1, construct 84: Construct containing the …; experiment: flow cytometry, transfected 293-F cells
Protocol: as §1

[7] = target: T6, chimeric OX40 construct 1546: Human OX40 with mouse domains 2A, 2B and module 3 (aa 66-126) (human; mouse, UniProt P47741 62-124); experiment: flow cytometry, transfected 293-F cells
T6 construct: domain: 2A, 2B and module 3; On 293-F cells; limits derived as for 1544
T6 sequence: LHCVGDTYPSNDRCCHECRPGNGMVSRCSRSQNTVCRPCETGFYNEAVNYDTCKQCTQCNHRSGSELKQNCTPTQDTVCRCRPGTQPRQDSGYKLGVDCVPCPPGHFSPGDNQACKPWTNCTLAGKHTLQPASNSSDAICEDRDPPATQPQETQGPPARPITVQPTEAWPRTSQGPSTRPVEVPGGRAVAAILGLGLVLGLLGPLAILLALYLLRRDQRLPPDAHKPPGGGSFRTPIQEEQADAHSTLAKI
Protocol: as §1

Chain of CTLA-4 (BMS, Orencia) (P16410 38-152 limits assumed): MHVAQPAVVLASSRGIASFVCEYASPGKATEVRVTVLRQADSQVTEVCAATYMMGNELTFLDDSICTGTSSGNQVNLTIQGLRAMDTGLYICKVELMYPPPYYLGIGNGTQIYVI

B1: bispecific molecule 1526/1585 (bispecific antibody, human IgG1, kappa)
heavy: not shown
light: DIQMTQSPSSLSASVGDRVTITCRASQSISSYLNWYQQKPGKAPKLLIYAASSLQSGVPSRFSGSGSGTDFTLTISSLQPEDFATYYCQQYGSDSLLTFGQGTKLEIKRTVAAPSVFIFPPSDEQLKSGTASVVCLLNNFYPREAKVQWKVDNALQSGNSQESVTEQDSKDSTYSLSSTLTLSKADYEKHKVYACEVTHQGLSSPVTKSFNRGECSGGGGSGGGGSAPLKIQAYFNETADLPCQFANSQNLSLSELVVFWQDQENLVLNEVYLGKERFDSVDSKYMGRTSFDSDSWTLRLHNLQIKDKGRYQCIIHHKKPTGMINIHQMNSELSVLA
In the case of B1, the “Mean IL-2 level (pg/ml) induced at 1.5 nM bispecific antibody or control” value (CTLA-4 (BMS, Orencia)) is reported as 3200 pg/mL.

B2: human OX40L (hOX40L, RnD Systems) (ligand, UniProt P23510 51-183, looked up)
chain: QVSHRYPRIQSIKVQFTEYKKEKGFILTSQKEDEIMKVQNNSVIINCDGFYLISLKGYFSQEVNISLHYQKDEEPLFQLKKVRSVNSLMVASLTYKDKVYLNVTTDNTSLDDFHVNGGELILIHQNPGEFCVL
notes: also called human OX40 ligand
B2: binds [1].

B3: anti-OX40 antibody 1526/1527 (antibody, V domains shown)
VH: EVQLLESGGGLVQPGGSLRLSCAASGFTFSGYSMYWVRQAPGKGLEWVSGIGYSGYGTYYADSVKGRFTISRDNSKNTLYLQMNSLRAEDTAVYYCARYYFHDYAAYSLDYWGQGTLVTVSS
VL: DIQMTQSPSSLSASVGDRVTITCRASQSISSYLNWYQQKPGKAPKLLIYAASSLQSGVPSRFSGSGSGTDFTLTISSLQPEDFATYYCQQYGSDSLLTFGQGTKLEIK
notes: Tested as IgG
B3 was tested, and the “relative MFI compared to isotype control” value [2] was 1, the “relative MFI compared to isotype control” value [3] was 1.3 and the “relative MFI compared to isotype control” value [4] was 12.7. For the same binder, the “relative MFI compared to isotype control” value [5] was 1.1, the “relative MFI compared to isotype control” value [6] was 21.4 and the “relative MFI compared to isotype control” value [7] was 0.9.

B4: anti-OX40 antibody 1168/1135 (antibody, V domains shown)
VH: EVQLLESGGGLVQPGGSLRLSCAASGFTFSGSSMSWVRQAPGKGLEWVSSISYYGGYTYYADSVKGRFTISRDNSKNTLYLQMNSLRAEDTAVYYCARYFPHYYFDYWGQGTLVTVSS
VL: not shown
notes: Tested as IgG
With B4 the “relative MFI compared to isotype control” value [2] was 1, the “relative MFI compared to isotype control” value [3] was 46.6 and the “relative MFI compared to isotype control” value [4] was 1. For the same binder, the “relative MFI compared to isotype control” value [5] was 13.2, the “relative MFI compared to isotype control” value [6] was 29.6 and the “relative MFI compared to isotype control” value [7] was 0.9.

B5: anti-OX40 antibody 1542/1135 (antibody, V domains shown)
VH: EVQLLESGGGLVQPGGSLRLSCAASGFTFGSSSMYWVRQAPGKGLEWVSGIGYYSYSTSYADSVKGRFTISRDNSKNTLYLQMNSLRAEDTAVYYCARGYPHHYFDYWGQGTLVTVSS
VL: not shown
notes: Tested as IgG
B5 was tested, and the “relative MFI compared to isotype control” value [2] was 1, the “relative MFI compared to isotype control” value [3] was 40.2 and the “relative MFI compared to isotype control” value [4] was 1.2. For the same binder, the “relative MFI compared to isotype control” value [5] was 7.1, the “relative MFI compared to isotype control” value [6] was 29.4 and the “relative MFI compared to isotype control” value [7] was 0.9.

B6: anti-OX40 antibody 1482/1483 (antibody, V domains shown)
VH: EVQLLESGGGLVQPGGSLRLSCAASGFTFSSYAMSWVRQAPGKGLEWVSYISYYSGYTYYADSVKGRFTISRDNSKNTLYLQMNSLRAEDTAVYYCARGYGYLDYWGQGTLVTVSS
VL: DIQMTQSPSSLSASVGDRVTITCRASQSISSYLNWYQQKPGKAPKLLIYAASSLQSGVPSRFSGSGSGTDFTLTISSLQPEDFATYYCQQYGSLLTFGQGTKLEIK
notes: Tested as IgG
For B6, the “relative MFI compared to isotype control” value [2] was 1, the “relative MFI compared to isotype control” value [3] was 44.4 and the “relative MFI compared to isotype control” value [4] was 1.1. For the same binder, the “relative MFI compared to isotype control” value [5] was 8.4, the “relative MFI compared to isotype control” value [6] was 24.9 and the “relative MFI compared to isotype control” value [7] was 0.9.
